Assay in all cases: SPR
For experiment [1], the target named is T1, H1N1 A/California/07/2009 hemagglutinin ectodomain, biotinylated HA0 (influenza A virus A/California/07/2009 …, biotin on the BirA site).
The target in experiment [2] is T2, H1N1 A/New Caledonia/20/1999 hemagglutinin ectodomain, biotinylated HA0 (influenza A virus A/New …, biotin on the BirA site).
The target in experiment [3] is T1, H1N1 A/California/07/2009 hemagglutinin …. The source holds these as a separate data set.
For experiment [4], the target named is T2, H1N1 A/New Caledonia/20/1999 …. The source holds these as a separate data set.
Experiment [5] addresses T3, H5N1 A/Vietnam/1203/2004 hemagglutinin ectodomain, biotinylated HA0 (influenza A virus A/Vietnam/1203/2004 …).
The target in experiment [6] is T3, H5N1 A/Vietnam/1203/2004 hemagglutinin …. This is another data set of the same source.

Positions of bridges follow the written chain, without caps; N, C: chain ends. Non-standard residues stand in square brackets, D forms with d. No end group written: not given here.

Broadly, the koff is a measure of how fast the partners let go of each other. Low values mean a long-lived complex, high ones a short-lived complex. A word on the Kd: it is the equilibrium constant for the complex coming apart. Low readings indicate a tighter complex, high ones a looser complex.

In the case of P[dP]SLYEDPLGVAGGMGV (also: cyclic peptide, ring closure not given here) [cyclic peptide CP2], the koff was 3.48 s⁻¹ in experiment [1] and 1.08 s⁻¹ in experiment [2]. The Kd is 7280 nM in experiment [3] and 3080 nM in experiment [4].
Regarding PGLYEDPLGVAGGMG (also: cyclic peptide, ring closure not given here) [cyclic peptide CP6], the koff is 0.95 s⁻¹ in experiment [5], 0.83 s⁻¹ in experiment [1] and 0.42 s⁻¹ in experiment [2]. For the same molecule, the Kd in experiment [6] is 3020 nM; in experiment [3], 1910 nM; in experiment [4], 800 nM.
In the case of CLYRDPLGVAGGMGC (disulfide 1-15) [cyclic peptide CP8], the values for the koff in experiment [5], in experiment [1] and in experiment [2] were 0.98 s⁻¹, 0.1 s⁻¹ and 0.23 s⁻¹, respectively. Further, the values for the Kd in experiment [6], in experiment [3] and in experiment [4] were 320 nM, 330 nM and 850 nM, respectively.
With CYRDPLGVAGEMC (also: cyclic peptide, ring closure not given here) [cyclic peptide CP13], the Kd in experiment [6] was 8910 nM; in experiment [3], 12000 nM; in experiment [4], 32000 nM.

B1: cyclic peptide CP3 (peptide)
chain: PPLYEDPLGVAGGMG
modifications: also: one Pro of the Pro-Pro template is D, which not given here, cyclic peptide, ring closure not given here
For the molecule B1, the koff in experiment [5] was determined as 0.76 s⁻¹; in experiment [1], 1.07 s⁻¹; in experiment [2], 0.45 s⁻¹. Also, the results for the Kd in experiment [6], in experiment [3] and in experiment [4] were 2040 nM, 2390 nM and 1180 nM, respectively.
LYEDPLGVAGGMG (non-template-based cyclic peptide (direct head-to-tail cyclization)) [cyclic peptide CP14]: the Kd in experiment [6] was 2740 nM; in experiment [3] it was 1070 nM; in experiment [4] it was 640 nM.
PGVSLYEDPLGVAGGMGVY (also: cyclic peptide, ring closure not given here) [cyclic peptide CP4]: the koff in experiment [5] was found to be 0.32 s⁻¹; in experiment [1], 0.04 s⁻¹; in experiment [2], 0.06 s⁻¹. The Kd was determined as 290 nM in experiment [6], 120 nM in experiment [3] and 360 nM in experiment [4].
[dP]PVSLYEDPLGVAGGMGVY (also: cyclic peptide, ring closure not given here) [cyclic peptide CP1]: the koff in experiment [5] is 0.14 s⁻¹; in experiment [1] it was 0.01 s⁻¹; in experiment [2] it was 0.02 s⁻¹. Further, the Kd in experiment [6] came out at 1800 nM; in experiment [4], 20 nM.

Source of the values: PMC12714728 (2025).
